According to patent US20250263475A1 (AGENCY FOR SCIENCE TECHNOLOGY AND RESEARCH, published 2025):
Ends that are not written are not given here. * marks the point of attachment. Biotin = O=C1N[C@H]2[C@H](CS[C@H]2CCCCC(=O)*)N1

Columns and labels:
[1] = target: T1, FSVRPYDPQIEN; assay: phage display, random 12-mers on M13 pIII, panning on the antibody
T1 construct: also called line 9 under 3G11
T1 peptide: FSVRPYDPQIEN

[2] = target: T2, FSVPSGHYIRAN; assay: as above
T2 construct: also called line 10 under 3G11
T2 peptide: FSVPSGHYIRAN

[3] = target: T3, FSVRPFHYAQDN; assay: as above
T3 construct: also called line 8 under 3G11
T3 peptide: FSVRPFHYAQDN

[4] = target: T4, GPSCHYCFTGLP; assay: as above
T4 construct: also called lines 2 and 3 under 3G11
T4 peptide: GPSCHYCFTGLP

[5] = target: T5, SSTHYSWSLMDA; assay: as above
T5 construct: also called line 1 under 3G11
T5 peptide: SSTHYSWSLMDA

[6] = target: T6, FSVPFDRIQETP; assay: as above
T6 construct: also called line 7 under 3G11
T6 peptide: FSVPFDRIQETP

[7] = target: T7, WSVPPGRHIHYS; assay: as above
T7 construct: also called lines 4 and 5 under 3G11
T7 peptide: WSVPPGRHIHYS

[8] = target: T8, SEQ ID NO 139; assay: phage display: peptide captured by the antibody (FIG. 8B taken as clone 3G11 by paragraph 561)
T8 peptide: FSVPSGHYIRAN

[9] = target: T9, SEQ ID NO 137; assay: as above
T9 peptide: GPSCHYCFTGLP

[10] = target: T10, SEQ ID NO 142; assay: as above
T10 peptide: FSVRPYDPQIEN

[11] = target: T11, SEQ ID NO 138; assay: as above
T11 peptide: WSVPPGRHIHYS

[12] = target: T12, SEQ ID NO 136; assay: as above
T12 peptide: SSTHYSWSLMDA

[13] = target: T13, SEQ ID NO 140; assay: as above
T13 peptide: FSVRPFHYAQDN

[14] = target: T14, SEQ ID NO 141; assay: as above
T14 peptide: FSVPFDRIQETP

[15] = target: T15, mouse p53 wild-type full length protein (mouse, UniProt P02340 1-390); assay: ELISA on coated full-length protein
T15 construct: mature; Full length protein in ELISA; also called wildtype mouse p53; p53 of wild-type MEFs

[16] = target: T16, SRPADHWPRHNE; assay: phage display, random 12-mers on M13 pIII, panning on the antibody
T16 construct: also called line 2 under 4H2
T16 peptide: SRPADHWPRHNE

[17] = target: T17, ELWQNVRPFLWV; assay: as above
T17 construct: also called line 1 under 4H2
T17 peptide: ELWQNVRPFLWV

[18] = target: T18, SSRPMAHWPIKV; assay: as above
T18 construct: also called line 3 under 4H2
T18 peptide: SSRPMAHWPIKV

[19] = target: T19, SNTPHWPGRPGI; assay: as above
T19 construct: also called line 5 under 4H2
T19 peptide: SNTPHWPGRPGI

[20] = target: T20, SEQ ID NO 105; assay: phage display: peptide captured by the antibody from an M13 random 12-mer library (FIG. 7B = clone 4H2 by paragraph 523)
T20 peptide: SRPADHWPRHNE

[21] = target: T21, SEQ ID NO 104; assay: as above
T21 peptide: ELWQNVRPFLWV

[22] = target: T22, SEQ ID NO 108; assay: as above
T22 peptide: SNTPHWPGRPGI

[23] = target: T23, SEQ ID NO 106; assay: as above
T23 peptide: SSRPMAHWPIKV

[24] = target: T24, SEQ ID NO 109; assay: as above
T24 peptide: INTPRDWAYGGL

[25] = target: T25, human p53 wild-type full length protein (human, UniProt P04637 1-393); assay: ELISA on coated full-length protein
T25 construct: Full length recombinant protein in ELISA; expressed in transfected H1299 cells or endogenous in MCF7/A549 cells and tumour samples in blots, IP, IF and IHC; also called wildtype p53; WT HP53

[26] = target: T26, YHVGGILGRLFM; assay: phage display, random 12-mers on M13 pIII, panning on the antibody
T26 construct: also called line 3 under 13E4
T26 peptide: YHVGGILGRLFM

[27] = target: T27, DNASSSKVHHGH; assay: as above
T27 construct: also called line 2 under 13E4
T27 peptide: DNASSSKVHHGH

[28] = target: T28, TFVHGNTWTIVN; assay: as above
T28 construct: also called line 1 under 13E4
T28 peptide: TFVHGNTWTIVN

[29] = target: T29, YNTFPYHLGYTL; assay: as above
T29 construct: also called line 5 under 13E4
T29 peptide: YNTFPYHLGYTL

[30] = target: T30, GKTYSYHMQLYT; assay: as above
T30 construct: also called line 4 under 13E4
T30 peptide: GKTYSYHMQLYT

[31] = target: T31, 267 RNSFEVHVCACPG 279 (not fully specified; cysteine pairing not given here); assay: ELISA on biotinylated 13-mer on streptavidin plate, antibody 1 ug/ml, O.D. 650 nm
T31 construct: also called unsubstituted 13-mer of the alanine scan on R273H
T31 peptide: Biotin-RNSFEVHVCACPG

[32] = target: T32, SEQ ID NO 115; assay: phage display: peptide captured by the antibody from an M13 random 12-mer library (FIG. 7C = clone 13E4 by paragraph 523)
T32 peptide: YNTFPYHLGYTL

[33] = target: T33, SEQ ID NO 116; assay: as above
T33 peptide: DNASSSKVHHGH

[34] = target: T34, SEQ ID NO 114; assay: as above
T34 peptide: YHVGGILGRLFM

[35] = target: T35, SEQ ID NO 113; assay: as above
T35 peptide: GKTYSYHMQLYT

[36] = target: T36, SEQ ID NO 117; assay: as above
T36 peptide: TFVHGNTWTIVN

B1: anti-R248Q p53 antibody clone 3G11 (antibody, V domains shown)
VH: DVQLQQSGPELVKPGASVKMSCKASGYTFTDYYVKWVKQSPGQSLEWIGDIHPKNGGTNYNQKFKGKAALTVDKSSSTAYMQLNSLTSEDSAVYFCAKMGGYDDYWGQGTTLTVSS
VL: not shown
**Q.** Does B1 bind [1]?
**A.** Result: binds

**Q.** Does B1 bind [2]?
**A.** Result: binds

**Q.** Does B1 bind [3]?
**A.** Result: binds

**Q.** Does B1 bind [4]?
**A.** Result: binds

**Q.** Does B1 bind [5]?
**A.** Result: binds

**Q.** Does B1 bind [6]?
**A.** Result: binds

**Q.** Does B1 bind [7]?
**A.** Result: binds

**Q.** Does B1 bind [8]?
**A.** Result: binds

**Q.** Does B1 bind [9]?
**A.** Result: binds

**Q.** Does B1 bind [10]?
**A.** Result: binds

**Q.** Does B1 bind [11]?
**A.** Result: binds

**Q.** Does B1 bind [12]?
**A.** Result: binds

**Q.** Does B1 bind [13]?
**A.** Result: binds

**Q.** Does B1 bind [14]?
**A.** Result: binds

**Q.** Does B1 bind [15]?
**A.** Result: no binding (tested: neat supernatant)

B2: mouse human chimeric anti-R248Q p53 antibody clone MH 3G11 (antibody, V domains shown)
VH: B1 VH
VL: not shown
notes: also called chimeric 3G11
**Q.** Does B2 bind [15]?
**A.** Result: no binding (tested: 1 ng/µl)

B3: anti-R248Q p53 antibody clone 4H2 (antibody, V domains shown)
VH: QVQLKQSGPELVKPGASVKMSCKASGYTFTDYYLKWVRQSHGKSLEWIGDIDPKNGGTNYNQKFKGKATLTVDKSSSTAYMQLNSLTSEDSAVYYCAKQGGFDDYWGQGTTLTVSS
VL: not shown
notes: Mouse monoclonal antibody from hybridoma
**Q.** Does B3 bind [16]?
**A.** Result: binds

**Q.** Does B3 bind [17]?
**A.** Result: binds

**Q.** Does B3 bind [18]?
**A.** Result: binds

**Q.** Does B3 bind [19]?
**A.** Result: binds

**Q.** Does B3 bind [20]?
**A.** Result: binds

**Q.** Does B3 bind [21]?
**A.** Result: binds

**Q.** Does B3 bind [22]?
**A.** Result: binds

**Q.** Does B3 bind [23]?
**A.** Result: binds

**Q.** Does B3 bind [24]?
**A.** Result: binds

**Q.** Does B3 bind [25]?
**A.** Result: no binding (tested: neat supernatant)

**Q.** Does B3 bind [15]?
**A.** Result: no binding (tested: neat supernatant)

B4: mouse human chimeric anti-R248Q p53 antibody clone MH 4H2 (antibody, V domains shown)
VH: B3 VH
VL: not shown
notes: also called chimeric 4H2
**Q.** Does B4 bind [15]?
**A.** Result: no binding (tested: 1 ng/µl)

B5: anti-R273H p53 antibody clone 13E4 (antibody, V domains shown)
VH: EVQLLETGGDLVTPGGSLKLSCAASGFSFSDYYMYWVRQTPEKRLEWVATISVGGTYTFYSDNVKGRFVISRDNARKNLHLEMNSLKSEDAAMYYCVRDGNDGKFLGYWGQGTFVTVTV
VL: DIVMTQSPLSLPVNLGDQVSLSCRSSQSIVHNNGDTYLEWYLQKPGQSPKLLIYKVSNRFSGVPDRFSGSGSGTDFTLKISRVEAEDLGIYYCFQGSHLPLTFGSGTKLELK
notes: Mouse monoclonal antibody from hybridoma; also called 13E4 mAb
**Q.** Does B5 bind [26]?
**A.** Result: binds

**Q.** Does B5 bind [27]?
**A.** Result: binds

**Q.** Does B5 bind [28]?
**A.** Result: binds

**Q.** Does B5 bind [29]?
**A.** Result: binds

**Q.** Does B5 bind [30]?
**A.** Result: binds

**Q.** Does B5 bind [31]?
**A.** Result: binds

**Q.** Does B5 bind [32]?
**A.** Result: binds

**Q.** Does B5 bind [33]?
**A.** Result: binds

**Q.** Does B5 bind [34]?
**A.** Result: binds

**Q.** Does B5 bind [35]?
**A.** Result: binds

**Q.** Does B5 bind [36]?
**A.** Result: binds
